Legend:
Mv1Lu cell = assay: PAI-1 ELISA in culture supernatant of Mv1Lu cells with or without TGF-β1; format: cell-based, mink; details: Mv1Lu cells with forced expression; 10 ng/ml TGF-β1, 24 hours; control cells about 16-fold
From the text: Accordingly, TAK1DN was subjected to forced expression in the Mv1Lu cell to investigate the effects of TGF-β stimulation on PAI-1 expression. The TAK1DN expression vector used was the above-mentioned TAK1DN, and the TAK1 polypeptide mutant TAK1-K63W expression vector was constructed by inserting a gene (Yamaguchi K. et al., (1995) Science 270, 2008-2011) encoding the TAK1 polypeptide mutant TAK1-K63W in which the lysine residue at position 63 has been replaced with the tryptophan residue at the EcoRI and NotI restriction enzyme site of pCOS1 to give pTAK1K63W.
The Mv1Lu cells into which pTAK1Dn had been introduced (Mv/DN2), the cells into which pTAK1K63W had been introduced (Mv/KN7), and the control cells into which pCOS1 containing no inserted genes (Mv/NEO) had been introduced were each incubated in a low-serum medium (MEM medium containing 0.2% FBS; manufactured by GIBCO-BRL) with or without 10 ng/ml of TGF-β1 for 24 hours. The amount of PAI-1 in the culture supernatant was determined using the PAI-1 Quantative ELISA (manufactured by CALBIOCHEM).

TAB1 = molecular target: T1, TAB1 (Homo sapiens, UniProt Q15750); assay: Animal cell 2-hybrid system in CHO cells, luciferase activity; format: cell-based; details: 72 hours after gene introduction, similar to pM-TAK1 and pVP16-C68
T1 construct: expressed in transfected cells; host or cells: CHO cells
T1 sequence (Q15750 437-504): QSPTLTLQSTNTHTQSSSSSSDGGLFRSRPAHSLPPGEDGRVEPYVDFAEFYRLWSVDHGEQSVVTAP
Procedure: It was analyzed whether a polypeptide (TAK1-DN) comprising Glu at position 77 to Gln at position 303 of the TAK1 polypeptide as set forth in SEQ ID NO: 4 inhibits binding between the TAK1 polypeptide and the TAB1 polypeptide and whether it can inhibit the activation of the TAK1 polypeptide in animal cells by an animal cell 2-hybrid system (Dang et al., (1991) Mol. Cell. Biol. 11, 954-962) using the TAB1 polypeptide and the TAK1 polypeptide.
First, a gene encoding a full-length TAK1 and TAK1-DN and a gene encoding the GAL4 DNA-binding domain (GAL4-BD) were ligated to construct an expression vector. A gene encoding a full-length TAK1 was prepared by digesting yeast 2-hybrid expression plasmid pBTMHu11F (Shibuya H. et al., (1996) 272, 1179-1182) with restriction enzymes EcoRI and PstI, and was then linked to the EcoRI/Pst site of an expression vector pM (manufactured by CLONTECH) containing the GAL4-BD gene, which was termed an animal cell 2-hybrid expression plasmid pM-TAK1. […]
After further incubating for 72 hours, luciferase activity in each cell extract was determined using the Dual-LuciferaseTM Assay System (manufactured by Promega). […] The efficiency of gene introduction was corrected with the measured value of luciferase activity of Renilla by pRL-SV40.

binding to TAB1: luciferase activity for pM-TAK1DN and pVP16-C68 (TAB1): binds to TAB1
B1: TAK1-DN: polypeptide of Glu at position 77 to Gln at position 303 of TAK1 (SEQ ID NO: 4), the TAB1 binding site; dominant negative inhibitor (protein)
chain: ELRQLSRVNHPNIVKLYGACLNPVCLVMEYAEGGSLYNVLHGAEPLPYYTAAHAMSWCLQCSQGVAYLHSMQPKALIHRDLKPPNLLLVAGGTVLKICDFGTACDIQTHMTNNKGSAAWMAPEVFEGSNYSEKCDVFSWGIILWEVITRRKPFDEIGGPAFRIMWAVHNGTRPPLIKNLPKPIESLMTRCWSKDPSQRPSMEEIVKIMTHLMRYFPGADEPLQYPCQ
increase in PAI-1 in the culture supernatant by TGF-β1 addition (Mv1Lu cell): about 4.3 fold

From patent US6551840B2, “Method of screening TGF-β-inhibiting substances” (Chugai Seiyaku Kabushiki Kaisha, priority 1997, dated 2003)
